From patent US20200283528A1 (NUMAB THERAPEUTICS, published 2020) come the findings set out here.

In test [1] the target is T1, human PDL1 (recombinant, soluble) (human, UniProt Q9NZQ7 19-238).
T1 construct: also called hPDL1; hPD-L1
The test is described as follows: PDL1/PD-1 competition ELISA; PD-1 coated, biotinylated PDL1 1 ng/ml. Here is the method:
(§1) ELISA microplates coated overnight at 4° C. with 4 μg/ml human PD-1 were washed three times with 450 μl wash buffer per well. Plates were blocked for 1 hour at room temperature by adding 300 μl of PBS with 1% BSA and 0.2% tween (dilution buffer) to each well. […] The mixtures were pre-incubated for 1 hour at room temperature under gentle agitation on a rotating mixer (21 rpm) and added to the microplates after 3 wash cycles with 450 μl wash buffer per well. Plates were incubated for 1.5 hours at room temperature under gentle agitation, then 10 ng/ml streptavidin-polyHRP40 was added to each microplate well after three washes with 450 μl of wash buffer per well. After 1 h incubation at RT, plates were washed three times with 450 μl wash buffer and TMB substrate solution was added. The enzymatic reaction was stopped after 6 minutes by addition of 1 M HCl and absorbance was measured at 450 nm using 690 nm as a reference wavelength. For calculation of IC₅₀ values, a four-parameter logistic (4PL) curve fit was performed in Graph Pad Prism using reference subtracted values.

In test [2] the target is T1, human PDL1 (recombinant, soluble). In words: PDL1/B7-1 competition ELISA; B7-1 coated, biotinylated PDL1 40 ng/ml. Here is the method:
as §1, with “B7-1” for “PD-1”
A general note: ELISA stands for enzyme-linked immunosorbent assay.

In test [3] the target is T2, human PDL1 expressed on cells (human, UniProt Q9NZQ7 19-290). The test is described as follows: cell-based or functional assay.
Test [4] has as its target cynomolgus PDL1, recombinant (Sino Biological) / PDL1-Fc chimeric protein (cynomolgus (Macaca fascicularis), UniProt G7PSE7 19-238). In words: SPR Biacore T200; cynomolgus PDL1 (Sino Biological) captured; scFv as analyte. Here is the method:
After each analyte injection cycle, the CM5 sensor chip was regenerated and new antigen was captured. The scFvs were injected as analyte using a dose response multicycle kinetic assay with concentrations of the analyte ranging from 0.12 to 30 nM diluted in running buffer for 5 min and dissociation of the protein was allowed to proceed for 12 min. Obtained sensorgrams were fitted using the 1:1 binding model.
A general note: Surface plasmon resonance follows binding to a sensor surface in real time, without labels.

Test [5] has as its target T2, human PDL1 expressed on cells. In words: cell-based or functional assay. This is another data set of the same source.

Chain of cynomolgus PDL1, recombinant (Sino Biological) / PDL1-Fc chimeric protein (G7PSE7 entry or part of it mutant limits assumed): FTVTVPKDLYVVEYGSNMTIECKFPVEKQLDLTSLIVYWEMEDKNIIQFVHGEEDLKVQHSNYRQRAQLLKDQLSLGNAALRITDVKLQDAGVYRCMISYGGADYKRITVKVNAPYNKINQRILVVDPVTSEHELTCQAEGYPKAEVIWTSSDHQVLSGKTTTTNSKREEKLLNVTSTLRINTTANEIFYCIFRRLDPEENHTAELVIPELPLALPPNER

B1: PRO1059 (33-03-G02 IgG1 LC with 38_02_A04 sc01 scFv, PDL1/CD137 (scFv) silent Morrison) (bispecific antibody)
light: DIQMTQSPSSLSASVGDRVTITCQASQSINDYLAWYQQKPGKAPKLLIYKASTLASGVPSRFSGSGSGTDFTLTISSLQPEDFATYYCQQGYIITDIDNVFGTGTKVTVLGTVAAPSVFIFPPSDEQLKSGTASVVCLLNNFYPREAKVQWKVDNALQSGNSQESVTEQDSKDSTYSLSSTLTLSKADYEKHKVYACEVTHQGLSSPVTKSFNRGECGGGGSGGGGSIQMTQSPSSLSASVGDRVTITCQASQSINNVLAWYQQKPGKAPKLLIYRASTLASGVPSRFSGSGSGTDFTLTISSLQPEDFATYYCQSSYGNYGDFGTGTKVTVLGGGGGSGGGGSGGGGSGGGGSQVQLQESGPGLVKPSETLSLTCKVSGFSFSNSYWICWIRQPPGKGLEWIGCTFVGSSDSTYYANWAKGRVTISVDSSKNQFSLKLSSVTAADTAVYYCARHPSDAVYGYANNLWGQGTLVTVSS
heavy: QVQLQESGPGLVKPSETLSLTCKVSGFSFSSGYDMCWIRQPPGKGLEWIGCVVAGSVDITYYASWAKGRVTISVDSSKNQFSLKLSSVTAADTAVYYCARKDAYSDAFNLWGQGTLVTVSSASTKGPSVFPLAPSSKSTSGGTAALGCLVKDYFPEPVTVSWNSGALTSGVHTFPAVLQSSGLYSLSSVVTVPSSSLGTQTYICNVNHKPSNTKVDKRVEPKSCDKTHTCPPCPAPEAAGGPSVFLFPPKPKDTLMISRTPEVTCVVVDVSHEDPEVKFNWYVDGVEVHNAKTKPREEQYNSTYRVVSVLTVLHQDWLNGKEYKCKVSNKALGAPIEKTISKAKGQPREPQVYTLPPSREEMTKNQVSLTCLVKGFYPSDIAVEWESNGQPENNYKTTPPVLDSDGSFFLYSKLTVDKSRWQQGNVFSCSVMHEALHNHYTQKSLSLSPGK
notes: also called Morrison-L
Broadly, the IC50 is the concentration that inhibits the measured activity by half. Regarding B1, the IC50 in test [1] was determined as 0.00454 µg/mL; in test [2], 0.029 µg/mL. Moreover, the “NF-AT potency assay IC50” value in test [3] was found to be 0.0938 µg/mL.

B2: PRO963 (= PRO1051)(38_02_A04 sc01 scDb-i/33-03-G02 sc01 scDb-o/19-01-H04-sc03 scFv) (other)
chain: DIQMTQSPSSLSASVGDRVTITCQASQSINDYLAWYQQKPGKAPKLLIYKASTLASGVPSRFSGSGSGTDFTLTISSLQPEDFATYYCQQGYIITDIDNVFGTGTKVTVLGGGGGSQVQLQESGPGLVKPSETLSLTCKVSGFSFSNSYWICWIRQPPGKGLEWIGCTFVGSSDSTYYANWAKGRVTISVDSSKNQFSLKLSSVTAADTAVYYCARHPSDAVYGYANNLWGQGTLVTVSSGGGGSGGGGSGGGGSGGGGSIQMTQSPSSLSASVGDRVTITCQASQSINNVLAWYQQKPGKAPKLLIYRASTLASGVPSRFSGSGSGTDFTLTISSLQPEDFATYYCQSSYGNYGDFGTGTKVTVLGGGGGSQVQLQESGPGLVKPSETLSLTCKVSGFSFSSGYDMCWIRQPPGKGLEWIGCVVAGSVDITYYASWAKGRVTISVDSSKNQFSLKLSSVTAADTAVYYCARKDAYSDAFNLWGQGTLVTVSSGGGGSGGGGSIQMTQSPSSLSASVGDRVTITCQSSESVYSNNQLSWYQQKPGQPPKLLIYDASDLASGVPSRFSGSGSGTDFTLTISSLQPEDFATYYCAGGFSSSSDTAFGGGTKLTVLGGGGGSGGGGSGGGGSGGGGSEVQLVESGGGLVQPGGSLRLSCAASGFSLSSNAMGWVRQAPGKGLEYIGIISVGGFTYYASWAKGRFTISRDNSKNTVYLQMNSLRAEDTATYFCARDRHGGDSSGAFYLWGQGTLVTVSS
Take B2: the “NF-AT potency assay IC50 (with HSA)” value in test [3] came out at 0.275 µg/mL.

B3: PRO1062 (33-03-G02 sc01 IgG1 HC with 38_27_C05 sc01 scFv, PDL1/CD137 (scFv) silent Morrison) (bispecific antibody)
light: DIQMTQSPSSLSASVGDRVTITCQASQSINDYLAWYQQKPGKAPKLLIYKASTLASGVPSRFSGSGSGTDFTLTISSLQPEDFATYYCQQGYIITDIDNVFGTGTKVTVLGTVAAPSVFIFPPSDEQLKSGTASVVCLLNNFYPREAKVQWKVDNALQSGNSQESVTEQDSKDSTYSLSSTLTLSKADYEKHKVYACEVTHQGLSSPVTKSFNRGEC
heavy: QVQLQESGPGLVKPSETLSLTCKVSGFSFSSGYDMCWIRQPPGKGLEWIGCVVAGSVDITYYASWAKGRVTISVDSSKNQFSLKLSSVTAADTAVYYCARKDAYSDAFNLWGQGTLVTVSSASTKGPSVFPLAPSSKSTSGGTAALGCLVKDYFPEPVTVSWNSGALTSGVHTFPAVLQSSGLYSLSSVVTVPSSSLGTQTYICNVNHKPSNTKVDKRVEPKSCDKTHTCPPCPAPEAAGGPSVFLFPPKPKDTLMISRTPEVTCVVVDVSHEDPEVKFNWYVDGVEVHNAKTKPREEQYNSTYRVVSVLTVLHQDWLNGKEYKCKVSNKALGAPIEKTISKAKGQPREPQVYTLPPSREEMTKNQVSLTCLVKGFYPSDIAVEWESNGQPENNYKTTPPVLDSDGSFFLYSKLTVDKSRWQQGNVFSCSVMHEALHNHYTQKSLSLSPGKGGGGSGGGGSIQMTQSPSSLSASVGDRVTITCQASQSINNVLAWYQQKPGKAPKLLIYRASTLASGVPSRFSGSGSGTDFTLTISSLQPEDFATYYCQSSYGNYGDFGTGTKVTVLGGGGGSGGGGSGGGGSGGGGSQVQLQESGPGLVKPSETLSLTCKVSGFSFSNSYWICWIRQPPGKGLEWIGCTFVGSSDSTYYANWAKGRVTISVDSSKNQFSLKLSSVTAADTAVYYCARHPSDAVYGYANNLWGQGTLVTVSS
notes: also called Morrison-H
Turning to B3, the IC50 in test [1] is 0.0113 µg/mL; in test [2], 0.0195 µg/mL.

B4: PRO1347 (37-20-B03-sc09 scFv) (scFv)
chain: DIQMTQSPASLSASVGDRVTITCQASQSIGTYLAWYQQKPGKPPKLLIYRAFILASGVPSRFSGSGSGTDFTLTISSLQPEDFATYYCQSNFYSDSTTIGPNAFGTGTKVTVLGGGGGSGGGGSGGGGSGGGGSEVQLVESGGGLVQPGGSLRLSCAASGFSFNSDYWIYWVRQAPGKGLEWIACIYGGSSGNTQYASWAQGRFTISRDNSKNTVYLQMNSLRAEDTAVYFCARGYVDYGGATDLWGQGTLVTVSS
One may read the Kd as the free concentration of one partner at which half of the binding sites on the other are occupied at equilibrium, for simple one-to-one binding. The koff is the first-order rate constant of dissociation. In general, kon refers to the second-order rate constant of association. As for B4, in test [4], the “KD, cyno/KD, human” value came out at 1.41; the dissociation constant Kd turned out to be 0.0127 nM; the koff was determined as 8.77e-05 s⁻¹; the kon is 6.88e+06 M⁻¹ s⁻¹. Further, in test [5], the “reporter gene assay IC50” value was determined as 0.00753 µg/mL and the “reporter gene assay Maximum Inhibition (%)” value amounted to 88.9%.

B5: PRO951 (38-27-C05 sc02 scDb-i/33-03-G02 sc01 scDb-o) (bispecific antibody)
chain: DIQMTQSPSSLSASVGDRVTITCQASQSINDYLAWYQQKPGKAPKLLIYKASTLASGVPSRFSGSGSGTDFTLTISSLQPEDFATYYCQQGYIITDIDNVFGTGTKVTVLGGGGGSEVQLVESGGGLVQPGGSLRLSCAASGFSFNNDYDMCWVRQAPGKGLEWIGCIDTGDGSTYYASWAKGRFTISRDNSKNTVYLQMNSLRAEDTAVYYCAREAASSSGYGMGYFDLWGQGTLVTVSSGGGGSGGGGSGGGGSGGGGSIQMTQSPSSLSASVGDRVTITCQSSQSVYDNNWLAWYQQKPGKAPKLLIYRASNLASGVPSRFSGSGSGTDFTLTISSLQPEDFATYYCQGTYLSSNWYWAFGTGTKVTVLGGGGGSQVQLQESGPGLVKPSETLSLTCKVSGFSFSSGYDMCWIRQPPGKGLEWIGCVVAGSVDITYYASWAKGRVTISVDSSKNQFSLKLSSVTAADTAVYYCARKDAYSDAFNLWGQGTLVTVSS
Regarding B5, the concentration for half-maximal inhibition (IC50) in test [1] was found to be 0.0095 µg/mL; in test [2], 0.0093 µg/mL. Moreover, the “NF-AT potency assay IC50” value in test [3] was 0.0885 µg/mL.
